Experimental data published in the domain aggregation screens of Martell et al. (2025).

Assay: soluble fraction after stress (log2 fold change); higher = more stays soluble; pooled small domains, quantitative proteomics
Details: stress: pH 4
How it was run: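 Pooled custom libraries of small protein domains were stressed at pH 4 and then measured by high-throughput quantitative proteomics. The fold change in the amount of each domain that stays soluble after the acid stress serves as a measure of aggregation propensity. Fold changes are given on a log2 scale, and higher values mean more of the domain stayed soluble.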

Sequence | soluble fraction (log2)
HMGTAESIRLFLSSGLIKGVGEALAGRIVDTFGTDTFDIIENHPELLAGVKGISHRLAMSIYESFSQHIGV | -0.951
HMGTDIGADKAAQTALADAGLSSSQVTGLRTKQDWDDGQLRYEVEFRAGGVEYDYELAADGTILKADRDT | 0.254
HMGTEITEQRAKEIALENAKVAESDVTAMRVKKEMDDGVWRYDVEFYVQNKEYDYEINAMDGTILSVDYD | 0.0797
HMGTESFGARIRKIREARDWTPAALAEATGQTPEFVARVERDEVAPPVAFLLRLAAALGVDPSTF | -0.672
HMGTGADKNSWTIGDKVKHRKWGTGTVVKVTGAGEDAELDIAFKSEGIKRLLAAFAPIEKVK | -0.0706
HMGTHDAGTRFFDNLDSLLQNRDATRADVLAVYLLAVSLGFRGKHRSVSSAPQIAHYRNQAYVTLFQ | -0.386
HMGTIEQAFKGKAPGSAHLYDRARAVLAGGVTHDTRIHAPFPIMVQRALGARKWDVDGNEYIDY | -0.259
HMGTMKGFVDGSSVHLRSGPSLSESIRAKVVKGQTLYITERRGDWYRATVHGGGEGWIHTSLVKLAG | 0.261
HMGTPLYLLLAAEVRDRIATEQLAPHTAVPSERELAELHGVSRMTARQALALLESEGLVYRNPPRGTFVAE | -0.922
HMGTQIKSPMPGTILDVRVNVGDTVKEGDILMILEAMKMENEILAPVSGKVAAIQVSKGTAVNSGDLLAVL | -0.404
HMGTRHPLPYAYARANTVLLEDDGDRLVLWAPENVSLTALGEVLRRFDVDALERESSSTLANRIAVAYAG | -0.896
HMGTTLTKIPGIGENRARLLLRHFGSLRAVREADADALAAVKGMTRPAAEAIVRYFEQQDAEGRRD | 0.336
HMGTTTPPATRKGKVTSSFLNVRSGPSTANAKVAELKQNAVVTIYETSSNGWHRIGVNQWVIGTNIQE | -0.121
HMGTVSSGSSSTDTPFSLGEIVRHKVFGEGVVLSIEGQGDASRIQINFNTAGTKWLVTAYADLEK | -1.28
HMGTVVKRNALVHAWTEFNGGRASTKLLALGPGKVGEWIELENPQSGRKLRGEVQVDGSVRLG | 0.296
HMGTWKKIGTMTATVNDLYVRETPNGYIMGFINKGTVVEVDGKTTGKWTHAKVEGIGVGWIWTGYLDK | 0.161
HMGTYYTEIIAQLKKEIANGTWKLGERLPGELALAKQFNVSRSSIREALKALAYAGIVESKPGRGTFLLHV | -0.207
HMGVAAEDPDEAEKGAHSLKSSAANVGAEVVRGLAGEIESAASSGDVEAVRTILPGLEDAYSQAITDLET | 0.133
HMGVDMGPAKYVGQKALTATEMRPAGKIQIGQTVFDAVSVGPFIGARKAVKVIKYENAQLYVEPE | 0.116
HMGVEVEVPNVKGKLVADAEYELGLAQLTPVRTDSAYNRNLPPGTVLEQLPASGSHVKEGREIYLTINST | 0.155
HMGVGERIKARRKEIGLSAEQVAKELGVSPATVYRYESNDIMNMRIDKLEPIAKALHTTPAYLMGWE | 0.155
HMGVGVKSTEVDYQRTSSGSDIPTDDAAWTKTIPAVKVNTFLWTRTKINYTDGTSAIFYSVGY | 0.419
HMGVGVPVTLLLEKLGEDTLSAQQIMERLGLKSRASFRKVYLVPALEQKLIEMEFPDKPNSSKQRYRR | -0.00401
HMGVISRVITFWQNGFTVDDGPLRAFDDPANMAFMESIGRGEAPAELAPKTRTQRVNINLVQRHEPYSAPK | -0.934
HMGVITVRPPIVVRDFAIALNLKPFQVIGNLMELNKVVSVSSVIEEADARKVAERHGYTLEIRH | -0.133
HMGVMNEYEELRDRYLTGQIWKIGDLVEAKGIEGKIIQRGTNYITFNDSQGKVHKAWLHEIKV | ≥ 0.43

Sequence | soluble fraction (log2)
HMGVNNDIIKHRKLEFMIEMLPDTFTRKEANEIGEGLGISLATLTRYLSSDAFERTGHGRYRKKD | 0.139
HMGVPTEQEIGKRILAWRKLRGMTLQQLADKAGVGLTTIHNLETGLWYAKMPTYLYIAEALGVSLDALIYG | 0.0266
HMGVPVTAPMPGKVLKVTVSVGAAVKNGDLVLVLEAMKMENEIFATANGVVKEIRSREGDTVNSGDVMMVI | -1.35
HMGVRPAALGFQKVRIEPQVGTFREASGDVITPRGLIHAEWKRDEENALHLHYTLPDGVAYA | -0.109
HMGVSDDMARGVVRARQFLSDFAAVPLDRMTPAEAVARARQLKSELETDAKHSPWLLDVLSNA | -0.37
HMGVSEIGSPAWMESKLVTLASYEGSLDGLRTLWGGVAQHRARIPVESWDRLFAAKEEGKARLVKLGRT | 0.0299
HMGVSLREVPVAEHGDWIGRPIKELGIPAEVLIVLVRRADGTTVVPKGGTVLQQGDMLVVNEWEE | -1.25
HMGVTDSSYNVLRRQILEMLSVQQRTPADLARLIEADKEEIAAVIRFLLDKGEIQMEDGMLQTK | -0.151
HMGVVEEVAADFEGRAVVGKVDVDEQTELARRFGIMSIPTLVVMKGGKVVEQAVGARGKADIAAMLERH | -0.673
HMGYINLNVKVSPEWRDFWRSAYASVVAGYHQNKEHWNTIILDGSIPDKDIKRMIAESYDLVSD | -0.662
HMGYLNDRQRLIKDFITENQPLKVSDLVKQFPNIGLSTLKKDLQYLRGEQVLTMIGKGKGSVYVLNKK | ≥ 0.43
HMGYNDQEVKSNLITLLSTSKTGLSGVEISAQLGINRVTMTKFLNVFAAEGIIKQKNIGNLNLWLVEEGTE | -0.05
HMGYTTSFVVQLKNAVSISFDEIDQNLRKLPGVEDVVIVEEAAMAYLKVDRQHFREEQLAHFEFVRQ | -1.6
HMGYVQLTAREKEVLQGLVDGASYKMIAAKLDIRFGTVHTHVKNIYEKLHVNSASEAVVKAIRQRL | -0.743
HMHADIAATVVATMRQLGVLGLPRNYEIFYEALSGTNRELSLAVVSLSNRPTQDDLDRIGRRFFA | -0.426
HMHAEEIAREAKEALERGEEFHFAGITVRSEEALEFLEEWLRKFF | -1.23
HMHALSVKFSDEAAKTLPYDILSALRDVLALDPRPGYSRDENKIYRFEYADYNISFSVKDKTLTVLSAEK | -0.148
HMHAPRIEVVQIDPEKIGALIGPGGKNIRRITEVTGANLDIDEDNSGKIRVYASDSEAMNRALQEIDLVT | -0.18
HMHDHKTRLQELAAQRFGSAPSYLLTADGPAHDRRFHASVEVGGRSFGPGTGKSKKRAEQVAAHIAWDALS | 0.415
HMHDIPDITDLRPLRHTLGLTLAHAAQQLNTTTATISRLERGQHRNDHLATTYRTWLHTHPT | 0.08
HMHDLSQQIVRYLIQQGGSSSLTDKSDPQEIYRTFKVSKKKYKQALGNLYKSKTIVITSGKIELVD | 0.306
HMHDYNTIVGVIEMRDKNIPLTSIRQRYGIGYSGIDLILTRYKDSGLTLKEFLALDPSQAEELIYPPK | -0.134
HMHEHWDGSGFPKHLRGANIPLGARVIAVADTYDSITSSRAYRAGSTHEAAEREMRRVSGTQLDPE | 0.0226
HMHEIVDTVLQVKQSVEADPLIAPALKNKEIVFQLNAKGVFQFKNAVIQVASALGISKNTVYMHLRNNK | -0.14
HMHETMGQIIKRLRKERGLTQESLAERLGVTFQAVSKWETDAGMPDVSQIVPLANAFGVRTDVLFGLEGRD | 0.187
HMHEYSRIYQQQWWDNATGADAYHVIHSARSRAAQDPEAARALEYLEEQFRIRYGVRTEDFLGYLHD | -1.31

Sequence | soluble fraction (log2)
HMHFENEETFVLPLVREGFSEQQQLEMVDRLLFDANTDNPRWIIDWMASELPSTQRELLLDLEKRLAEVRS | -0.358
HMHFEWNELRKAINDFLAEQNMNEDKQLGPYFIQRDIVVPETGTEIDSKKFSEVFKHKVIMYLFDDAAKQ | -0.441
HMHGESISVPDLRGQKMERMPAFLADKHLQFKVIDSLFDLEKNPGTVLEQDPAPNSKVKEGRTIYLTVNAQ | -0.118
HMHGQGTYTSPDGTKYVGDWQDEKMHGQGTYTYPDGMKFVGEFKDNKPWNGTGYDKYGNVKATFSNGVGKS | 0.22
HMHGSSSTVPPVKGLSFEQARLTLAENDLTVEISDSIYDRNARPGTVVESWPRAGSVVKQGRQVYVTVTAF | -0.685
HMHHDDHNQQEEIKEKLLAMVADGERHHVTEVRQLDEDWDMVTKVMKELMDEEQLLMDGSYLILSA | -0.551
HMHHSGLRQSQFDEISRQIRSLLEMESLSLQELKTRMEDVPEEQLTKVVSYLLSEEIIRQENGRLQ | -1.35
HMHKAVVGPPNARKLAVTYGFKRWPALVFFRDGKYLGAVDGLRLWADLVREADEIMHSEPHYP | 0.22
HMHKFMEQNQDRRLSRMKELIGILSEAAKTYYQESREIMSNFQYDRMYDELLELEKETGVVMAGSPTQKV | -0.98
HMHKKQEVQDSIDAAEEFMRASGVPAELITSKRAYAVKAIYADAVDKGTPDEIVKKDGMIVALISQMRS | -0.159
HMHKLTIEEALNYKTPANAGGPYSGKPFRDIYDQRGKAAVISFAKYYLSKATPEDPMVEVYRTLLDGAMEL | 0.102
HMHKREKSFFETIYDDIPGIGKKRRVQLLSAYPTLDSLKSVTLEELKQIVPEESAKLILEKRDSR | 0.407
HMHPARITATVRVGEGDLVDIEREAELGGPIHSKGVMILSSFLGARYARTVPLSLSASLVFEQSY | 0.0113
HMHPDALTEREREVLSLLADGLSNREIAARLVLALGTVKWYISVIYSKLGVTRRTQAIARARELHLV | -0.41
HMHPEETVNLILDAAFRLFLEKGYEHTSIQDIIGQLGGLSKGAIYHHFNSKEDILIAVTDRMTA | -1.67
HMHPEQTLEKIVDISAELFAKKGYEQTSIQDILDATGLSKGGLYHHFKSKEEILEAVMQKRVQY | -0.647
HMHPFELNTVTEGQLKRLPFLSDLQIRELLEYRSRYGKMLTLYELKNVEAFDLETISLLVPFIYISEI | -1.44
HMHPKTPDELLALMSEEQRGQIEQLAKLVLMAVSYSGASYYDAVTTMYPRMSEERRRIITHVLNTASP | -0.825
HMHPLFRVVLAGEPNGVGLDDWLTRHEAELINGPSAIGVLTVKIAMGRRSFETVLDEIRADGETIFVEPV | -2.02
HMHPTDMKLTARLEEGAQFVRTQQLSKAIEIFTEVIKLDQNWAEAWNKRATVFYMMGKFKQSQEDIDKVLA | -0.12
HMHPTEKNLTSLLADGSFYMNQNKLETAYDTFTKTIELDPSWAEAWNKRATVLYLMGKYELSQADIDQV | -0.176
HMHPVTGRIGTVTAANGLNLRADSSEYANVVATLGYGVDVTVTGERINGFYPVRVGTLSGYVSADYVSFNS | -0.299
HMHQVHKIDGVKYYLHLVEKGNTLYGISKQYNVSVERIEKANTEALSDGLKENQTLLIPVTSDNKKT | 0.0091
HMHREITGSLAERNGRYTAILNLYDEDGKRRQKSIALGIPVKGNKRKAQAQLEELKRAYSLGLPQ | 0.051
